Laboratory results as given in the DeepSol protein solubility set.

assay: soluble on expression in E. coli; label from the status in PepcDB or PDB records

| Sequence | soluble on expression in E. coli |
| --- | --- |
| ASITGDALVALPEGESVRIADIVPGARPNSDNAIDLKVLDRHGNPVLADRLFHSGEHPVYAVRTVEGLRVTGTANHPLLCLVDVAGVPTLLWKLIDEIKPGDYAVIQRSAFSVDCAGFARGKPEFAPTTYTVGVPGLVRFLEAHHRDPDAKAIADELTDGRFYYAKVASVTDAGVQPVYSLRVDTADHAFITNGFVSHN | soluble |
| MSIDMHCHLDLYPRPDLVAEESKRRGTYILSVTTTPKAWHGTSLLAKESQRIRTALGLHPQIAHQRSHELDLFDSLLSETKYVGEIGLDGGQGFKEHWDIQLKVFRHILNSVNRAGGKIMTIHSRGSASAVLDEIENIDGVAILHWFTGTPKQLERAIDLGCWFSVGPAMLDTIKGKALVLKIPKSRILTETDGPFAKFRNDPLMPWDSGIAEKQLAALWGISQMEVNAQLVDNFKVLCTS | soluble |
| MAHHHHHHMEQQVIAVHYQRMEEWLSDRKAVLGKKHKKEFFRLMELAPKLEQLVRYEIPAQHKQNKRLSGLLDDAYGSIEDAAKARKNLEERQKRFFQEYGLVESQGAEEEDLEAVIEAKIASSTTSLNEALREFGRSPHLESFREAYVRAAKMYSMGMYDDNVFSLHLPWLDRVYQERFYKSKVDIHHHEQHQKQRAGERDQVAVKASTGPCNIDWGDEDTVDLVDVGETVEIKWDEEALEVAVEGAVRNCSENNKRMDDGCEEKPTDTVKGIFTIDVSNAAHRKNILTELQAFACFASERSSMDDESLAEPAAAVEVLVKKLTASTEAVFVRMKTTPTLRFSFMEEVRRLQRGIAAASMRKSNSQARVHQIQEEIERLGPQLDALLIAAGNCRDECLAELLKMFPGRTVTIVGDINKYL | not soluble |
| MATQARLPLPVGSTTSVSVVIPAKNVAAYVGETLASALAQGEVTEVIVVDDGSTDNTIAIVRAIRDPRLRLMTNDSAGVSAARNLGARHASGEWLLFLDADDRLRPGAVAALLAAARGAPRAVLVYGDYNTIDSEGRQVGRRDLLKGRRKPSGDVLTRLAASNFIVNGGIALARAEAFRAIGGFDTSLRYCEDWHCWCRLAAIGEFEFAPKLLLDYRLHTANTMNAAVRTPQDFFPAIARVFDDGLILARLPEGTAARLRQAAEIHLVTYSAMQAVRFGRYRQAFTYLGMVGRRSLKSLPRSALRVALACFGILEHHHHHH | not soluble |
| MENTETLIVEQLKIGNENAYRYIYDHHYALLCYVANGYLKDQFLSETIVGDTIFHLWEIRETLDISVSIRSYLLRAVRNRCINYLNSEREKREIAFSALMPDEITDDKIILSDSHPLGILLERELENEIYKAIDKLPDECRRVFAKSRFEGKSYEEISGELGISINTVKYHIKNALASLHAHLSKYLISLLLFFFR | not soluble |
| MFSAKKRDKCIGEMSEKQLDLLVIGGGITGAGIALDAQVRGIQTGLVEMNDFASGTSSRSTKLVHGGLRYLKQFEIKLVAEVGKERAIVYENAPHVTTPEWMLLPIFKDGTFGKFSTSLGLKVYDYLADVRKDERRYMLNEKQTLEKEPLLRKENLKGGGIYVEYRTDDARLTLEIMKEAVARGAVALNYMKVESFIYDQGKVVGVVAKDRLTDTTHTIYAKKVVNAAGPWVDTLREKDRSKHGKYLKLSKGVHLVVDQSRFPLRQAVYFDTESDGRMIFAIPREGKTYIGTTDTFYDKDIASPRMTVEDRDYILAAANYMFPSLNLTADDVESSWAGLRPLIHEEGKKASEISRKDEIFFSDSGLISIAGGKLTGYRKMAERTVDAVAQGLNVNEPCTTAAIRLSGGLAEGAQGFPRFLDEASRKGAKLGFDADEVRRLAKLYGSNVDHVLNYAYEGKEEAEHYGLPALLLGQLQYGVEQEMVATPLDFFVRRTGALFFNISLVHQWKEAVLRWMAEEFSWTEEEKTRFQNELETELKMAVDPLFQVEPTTVLEHHHHHH | soluble |
| MFFKRGKILSAGRLNKKSLGIVMLLSVGLLLAGCSGSKSSDTGTYSGSVYTVKRGDTLYRISRTTGTSVKELARLNGISPPYTIEVGQKLKLGGAKSSSITRKSTAKSTTKTASVTPSSAVPKSSWPPVGQRCWLWPTTGKVIMPYSTADGGNKGIDISAPRGTPIYAAGAGKVVYVGNQLRGYGNLIMIKHSEDYITAYAHNDTMLVNNGQSVKAGQKIATMGSTDAASVRLHFQIRYRATAIDPLRYLPPQGSKPKC | not soluble |
| MSLTNFVGSVLEATKEAIRALNPQNSTIYESLMVGAGGDVSLKADLMCEEILSARLRHFGHIHSEESGLIEGESQDIIYLDPLDGSTNLSSLIPYYGTSVALCDPEGRTKAAAVINFCSGETFIKTDAFALHGSIWQPIDTFVPIRPLEHASKIGIFEGSHRNAPWVLGLHQKGLKFRSPGAIALSMAYAHNVSFVLFDGEIREYDTKAGLFLCSDLHIHHDERALLISRDPIIFENLLELISQKGEGHHHHHH | soluble |
| MRPSAPAISRQTLLDEPRPGSLTIGYEPSEEAQPTENPPRFSWLPDIDDGARYVLRISTDPGFTDKKTLVFEDLAWNFFTPDEALPDGHYHWCYALWDQKSATAHSNWSTVRSFEISEALPKTPLPGRSARHAAAQTSHPRLWLNSEQLSAFADAVAKDPNHCGWAEFYEKSVEPWLERPVMPEPQPYPNNTRVATLWRQMYIDCQEVIYAIRHLAIAGRVLGRDDLLDASRKWLLAVAAWDTKGATSRAYNDEAGFRVVVALAWGYDWLYDHLSEDERRTVRSVLLERTREVADHVIAHARIHVFPYDSHAVRSLSAVLTPACIALQGESDEAGEWLDYTVEFLATLYSPWAGTDGGWAEGPHYWMTGMAYLIEAANLIRSYIGYDLYQRPFFQNTGRFPLYTKAPGTRRANFGDDSTLGDLPGLKLGYNVRQFAGVTGNGHYQWYFDHIKADATGTEMAFYNYGWWDLNFDDLVYRHDYPQVEAVSPADLPALAVFDDIGWATIQKDMEDPDRHLQFVFKSSPYGSLSHSHGDQNAFVLYAHGEDLAIQSGYYVAFNSQMHLNWRRQTRSKNAVLIGGKGQYAEKDKALARRAAGRIVSVEEQPGHVRIVGDATAAYQVANPLVQKVLRETHFVNDSYFVIVDEVECSEPQELQWLCHTLGAPQTGRSSFRYNGRKAGFYGQFVYSSGGTPQISAVEGFPDIDPKEFEGLDIHHHVCATVPAATRHRLVTLLVPYSLKEPKRIFSFIDDQGFSTDIYFSDVDDERFKLSLPKQF | soluble |
| SKIYDNKNQLIADLGSERRVNAQANDIPTDLVKAIVSIEDHRFFDHRGIDTIRILGAFLRNLQSNSLQGGSTLTQQLIKLTYFSTSTSDQTISRKAQEAWLAIQLEQKATKQEILTYYINKVYMSNGNYGMQTAAQNYYGKDLNNLSLPQLALLAGMPQAPNQYDPYSHP | not soluble |
| MKKFSSLFRSFMHFQLTLVKPLTRRSRPIELGRLNCTEPVSSNFGFERGRPIDRYYINIFLSQNTNDVRGRVLEISDNGYTKRLGGKKVKQSDVLHAVEGNPKATIVSDITKADNIPSDSFDCIILTQTLQFIYDTKSAVRHLHRILKPNGVLLATMSGISQISRYDMDHWGEYWRFTTASAKQLFEEEFLPENIEVKAYGNVLSSTAFLYGLAVEDLKTEQLDYHDPNYQMLVTVRAVKADKQLEHHHHHH | not soluble |
| MAKLDETLTMLKALTDAKGVPGNEREARDVMKTYIAPYADEVTTDGLGSLIAKKEGKSGGPKVMIAGHLDEVGFMVTQIDDKGFIRFQTLGGWWSQVMLAQRVTIVTKKGDITGVIGSKPPHILPSEARKKPVEIKDMFIDIGATSREEAMEWGVRPGDMIVPYFEFTVLNNEKMLLAKAWDNRIGCAVAIDVLKQLKGVDHPNTVYGVGTVQEEVGLRGARTAAQFIQPDIAFAVDVGIAGDTPGVSEKEAMGKLGAGPHIVLYDATMVSHRGLREFVIEVAEELNIPHHFDAMPGVGTDAGAIHLTGIGVPSLTIAIPTRYIHSHAAILHRDDYENTVKLLVEVIKRLDADKVKQLTFDE | not soluble |
| MVRRLLALSRPLYWLYEKRLLREVKRGPMPRHLGLILDGNRRYARALGLSPTKGHEFGVQKAYEVLEWCLEMGIKTVTVWVFSTDNFKRPPEEVETLMNLFLREAERMAEDHRILEHQVRVRFIGRREGFSPEVVRAIERLERRTEGHRGMFLNIAMGYGGREEIVDAVKRLLLEAEARGLSPKEVAEGLTPEDIARHLYTAGLPDPDFIIRTSGEIRLSGFLLWQSAYSEFYFADVLWPEFRKIDFLRALRSYQARERRFGR | soluble |
| MGSDKIHHHHHHMILSDPRFVALSNWLYQYFGDKVAINLICGDASFRRYFRLHHQGIDYIVSDSPIDLVPIAPFLAMAKAYQHAGLLVPEVLATCNDYGFVLQTDVGELQLLSVLNKDNVTDYYKQALNLLPVIATVTETDNGPLADYDDTFVARELAIFVDWLLKEHLDYVLTDNEQQMIATTFSALTDNVLAQPKVGMHRDYHSRNLLINDQALAVIDFQDAVHGPVTYDAVSLLRDCYVRWPDDIVNHLMRYHYQLAIAHQLIDENVDFATYTKWFDLMGLQRHIKAAGIFARLYHRDGKRGYLADIPLTLQYVADIGIKYPQIADFSLWIHKVILPLVNHKNTHEVVSEA | not soluble |
| MKSNKSKYKLVVDYVIDGINEGRLKKGAWIPSLNEFREMYGLSRDTVFSGIRELKSRGIIKSNPGVGYYIVSTRVPFKHNIFLLFNEFNEFKEDIYNSFMETVGNSATVDLYFHNYNRKVFETLVNNANHKYTTYIIMSGKFADIGPLLESLSGNVFLLDHYHSELKGKYSSVFQNFEKDTYEALVYGLSNLRKYKHIVMVQKDSKEPFERYDGLRAFCKEHGFTHECIGEIQGREIVKQEVFMVVNDRDLVNLLKQADRQQLVPGKDFGIISYNDTPLKEVLAGGITTLSTDFKLMGRTMASLINKKTIETIENPWNLNIRNSL | not soluble |
| MAHHHHHHMVKGDCIRAAHLLIKFDGSRNCVSHRTGKSTADLTYDAALAELKQWAKRIADGEITFEDAARQRSDCGSYNSGGDLGFFGPGVMMKPFEDAARSLNVGEVSGVVRTESGLHIIKRLA | soluble |
| MAKNDKINFSTPSGFPEFLPSEKRLELYLLDTIRRVYESYGFTPIETPAVERLEVLQAKGNQGDNIIYGLEPILPPNRQAEKDKSGDTGSEARALKFDQTVPLAAYIARHLNDLTFPFARYQMDVVFRGERAKDGRFRQFRQCDIDVVGREKLSLLYDAQMPAIITEIFEAVNIGDFVIRINNRKVLTGFFQSLNISETQIKSCISIIDNLEKIGEAKVKLELEKEGINPEQTQKIIDFVKIDGSVDDVLDKLKHLSQTLPESEQFNLGVSELETVITGVRNLGVPDKRFCIDLAIARGLNYYTGTVYETTLIGHEALGSICSGGRYEELVGTFIGEKMPGVGISIGLTRLISRLLKAGILNTLPPTPAQVVVVNMQDELMPTYLKVSQQLRQAGLNVITNFEKRQLGKQFQAADKQGIRFCVIIGADEAAAQKSSLKDLQSGEQVEVALADLAEEIKRRLT | soluble |
| MGSDKIHHHHHHMQTLLITSSFDKTCDYIQVKFPELNYFRLNVDKFSSYKLEIIADGFRIECGEHRLFSSECSSIYFRKPVFENLDGNIDVQYHNFVHKESYSLIEGLIESFSGRCLSKPSVMRRANNKVFQIMLAKSVGFLMPQLSITNDEIVLKKWAKDDAIVKPLAIGTVEYKTKKEFVQTNRLSSEKDTSALKYAPVYLQKFVDKDYEVRVTAINGQFFPARIDASNPVDWRKPNTETLFTKCVLPENIEQQCRTYMYKSSMDFGCFDFLVKDNVWYFLEMNANGQWGWLDNLFEGKISDAIATYLKSGLKNAHC | not soluble |
| MGSIPRVLISADRSSSGKTTISMGLMAALVSRGYKVQPFKVALDYIDPSYHTEITGRFCRNLDGYLMDEHGILDVYTHACETGGGADIAIIEGVRGLFEGFESLSDVGSTAQIAKILKCPVVFVINARSITRSAAALIGGYKNFDPDVEIAGVILNNIGGRRHAQKAKEAIEHYTGVPVLGIIPRDPSMQISMRHLGLMPALEGLEHHHHHH | not soluble |
| MEITDPGDFRQRIETSFARQGVVQAINAEISRIEHRLVEIELPFHEKLTQQHGILHAGVIAAGLDTACTYAAYTIIEPEASLLTIEFKVNLMSPGRGERFLFRGEIIKPGNNLIVADGRAYALSDGPAKLIASMTGTMMVVKGREDITGLEHHHHHH | soluble |
